Assay results taken from patent publication US20250145730A1 (SHANGHAI BAO PHARMACEUTICALS, published 2025).

Molecular target: T1, human FcRn (human, UniProt P55899 24-297; P61769 21-119)
T1 construct: also called hFcRn
Assay: BLI, acidic conditions, against the wild-type antibody

T1 sequence (P55899 24-297 limits assumed, chain 1 of 2): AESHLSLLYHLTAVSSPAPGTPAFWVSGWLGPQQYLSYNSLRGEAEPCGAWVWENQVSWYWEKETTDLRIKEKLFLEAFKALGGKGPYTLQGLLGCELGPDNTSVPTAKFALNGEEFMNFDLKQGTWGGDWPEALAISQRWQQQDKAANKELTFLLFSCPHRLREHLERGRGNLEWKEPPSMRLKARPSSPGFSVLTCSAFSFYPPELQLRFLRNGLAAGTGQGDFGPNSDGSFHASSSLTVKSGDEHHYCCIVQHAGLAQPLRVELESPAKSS
T1 sequence (P61769 21-119 limits assumed, chain 2 of 2): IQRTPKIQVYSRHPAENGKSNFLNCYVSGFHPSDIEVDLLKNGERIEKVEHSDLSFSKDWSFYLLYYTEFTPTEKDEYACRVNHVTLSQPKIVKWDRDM

B1: Antibody 8 (antibody, human IgG1, kappa)
heavy: not shown
light: DIVMTQSHLSMSTSLGDPVSITCKASQDVSTVVAWYQQKPGQSPRRLIYSASYRYIGVPDRFTGSGAGTDFTFTISSVQAEDLAVYYCQQHYSPPYTFGGGTKLEIKRTVAAPSVFIFPPSDEQLKSGTASVVCLLNNFYPREAKVQWKVDNALQSGNSQESVTEQDSKDSTYSLSSTLTLSKADYEKHKVYACEVTHQGLSSPVTKSFNRGEC
notes: also called antibody 3-Fucose
fold of the wild-type antibody's affinity: ≤ 3 fold
